Measurements published in publication PMC10720262 (Cell Reports, 2023).
Residue numbers refer to the chain shown, from its start.

B1: CL-510469 (antibody, V domains shown)
VH: QVQLVESGGGVVQPGRSLRLSCAASGFTFSSYGMHWVRQAPGKGLEWVAVIWYDGSNQFYTDSVKGRFTISRDNSKNTLYLHMNSLRVEDTAIYYCARDGDYSSSAGDFDYWGQGTLVTVSS
VL: not shown
B2: CL-510484 (antibody, V domains shown)
VH: QVQLVESGGGVVQPGRSLRLSCAASGFTFSNYGMNWVRQAPGKGLEWMAVIWYDGSNKYYGDSVKGRFTISRDNSKNTLYLQMISLRAEDTAVYFCAKSGEFYGSGSHFDYWGQGTLVTVSS
VL: not shown
B3: CL-512206 (antibody, V domains shown)
VH: QVQLVESGGGVVQPGRSLRLSCAASGFTFSHYGMHWVRQAPGKGLEWVAVIWYDGNNKFYADSVKGRFTISRDNSNNTLYLQMNSLRAEDTAVYHCVRERTGATSRGFDFWGQGTLVTVSS
VL: QSVLTQPPSVSAAPGQKVTISCSGSDSNIEKYYVSWYQQLPGSAPKLLIYDNNKRPSGIPDRFSGSKSGTSATLGITGLQTGDEAVYYCGTWDSSLSTGVFGGGTKLTVL
B4: CL-510596 (antibody, V domains shown)
VH: QVQLEESGGGVVQPGRSLRLSCTATGFTFSNYGMHWVRQAPGKGLEWVAVIWYDGSNKYYVDSVKGRFTISRDNSKNTLYLQMNSLRAEDTAVYYCARDGGYYGSGSYWWFDSWGQGTLVTVSS
VL: not shown
B5: CL-510514 (antibody, V domains shown)
VH: QVQLVESGGGVVQPGRSLRLSCTTSGFTFSNFGMHWVRQAPGKGLEWVALIWYDGSNKYYADSVKGRFTISRDNSKNTLYLQMNGLRAEDTAVYYCARDGGYYYGSGGAFDIWGQGTMVTVSS
VL: not shown
B6: CL-511776 (antibody, V domains shown)
VH: QVQLVESGGGVVQPGRSLTLSCAASGFTFSNFGMHWVRQAPGKGLEWMAVIWYDGNNEFYADSVKGRFTISRDNSKNMLYLHMNSLRAEDTAIYYCAREGDYSASGSHWLFDPWGQGTQVTVSS
VL: DIQMTQSPSTLSASVGDSITITCRASQSINIWLAWYQQKPGKAPNLLIYKASSLESGVPSRFSGSGSGTEFTLTINSLQPDDFATYYCQQYNNYVTFGGGTKVEIK
B7: CL-512023 (antibody, V domains shown)
VH: QVQLMESGGGVVQPGRSLRLSCEASGFTFSNSGMHWVRQAPGKGLEWVAIIWYDGSNRYYVDSVKGRFTISRDNSKNTLYLQMNSLRAEDTAVYYCARDGGNRYGYGWFDSWGQGTLVTVSS
VL: QSVLTQPPSVSGAPGQRVTISCTGSSSNIGAGYDVHWYQQLPGTAPKLLIYGNTNRPSGVPDRFSGSKSGTSASLAITGLQAEDEADYYCQSYDSSLGGSRRVFGGGTKLTVL
B8: CL-510433 (antibody, V domains shown)
VH: QVQLVESGGGVVQPGRSLRLSCVASGFTFSSYGMHWVRQAPGKGLEWVAVIWYDGSNKYYADSVKGRFTVSRDNSKNTLYLQMNSLRAEDTAVYYCARVYYYGSGSYSPYYYALDVWGHGTTVTVSS
VL: EIVMTQSPATLSVSPGERATLSCRASQSISSNLAWYQQKPGQAPRLLIYGASIRATGIPARFSGSGSGTEFTLSISILQSEDFAIYYCQQYNNWWTFGQGTKVEIK
B9: CL-511073 (antibody, V domains shown)
VH: QVQLVESGGGVVQPGRSLRLSCAASGFSFSSHGMHWVRQAPGKGLEWVSIIWYDGSNKFYADSVKGRFTISRDNSKNTLYLQMNSLRAEDTAVYYCARDGYDVLTGHYNWFDPWGQGTLVTVSS
VL: B8 VL with I29V, N32K, I53T, E70D, S74T, I77S, I85V, Q99H
B10: CL-510458 (antibody, V domains shown)
VH: QVQLVESGGGVVQPGRSLRLSCAASGFTFNNYGMHWVRQAPGKGLEWVAVIWYDGSNKFHADSVKGRFTISRDNSKNTLYLQMNSLRAEDTALYYCARVYYYDSGSYLDYWGQGTLVTVSS
VL: DIQMTQSPSSVSASVGDRVTITCRASQGISRWLAWYQQKPGKAPKLLIYAASSLQSGVPSRFSGSGSGTDFTLTISSLQPEDFATYCCQQANNFPWTFGQGTKVEIK
B11: CL-510632 (antibody, V domains shown)
VH: B10 VH with N30S, H60Y, M83T, L93V, S106N, T118A
VL: B10 VL with S30N, R31N, W32C, S77N, N93S
B12: CL-510499 (antibody, V domains shown)
VH: QVQLVESGGGLVQPGRSLTLSCAASGFTFSNYGMHWVRQTPGKGLEWVALIRYDGSYKFYADSVKGRFTISRDNSKNTLYLQMNSLRAEDTAIYFCARDGDYSNSAGDFDYWGQGTLVTVSS
VL: EIVLTQSPGTLSLSPGERATLSCRASQSVSSTNLAWYQQKPGQAPRLLIYGVSSRATGIPDRFSGSGSGTDFTLTINRLEPEDFAVYYCQQHGRSFTFGPGTKVEIK
B13: CL-510453 (antibody, V domains shown)
VH: QVQLVESGGGVVQPGRSLRLSCAASGFTFSSYGMHWVRQAPDKGLEWVAIIWYDGSKKYYADSVKGRFTVSRDNSKNTLYLQMNSLRAEDTAVFYCARSFDYESGGFYSFDYWGQGTLVSVSS
VL: DIQMTQSPSTLSASVGDRVTITCRASQSISSWLAWYQQKPGKAPKLLIYRASSLASGVPSRFSGSGSGTEFTLTISSLQPDDFATYYCQQYNSYWTFGQGTKVEFK
B14: CL-510487 (antibody, V domains shown)
VH: B4 VH with K43R, A49G, Y59F
VL: B13 VL with R50K, A55E, S56R, S93R, W95C, T96S, V103L, F105I
B15: CL-510640 (antibody, V domains shown)
VH: QVQLVESGGGVVQPGRSLRLSCAASGFTFSNYGMHWVRQAPVKGLEWVAIIWYDGSNKFYADSVRGRFIISRDNSKNTLYLQMNSLRAEDTAVYFCARAREGQNSDYYGSETSYTFDSWGLGTLVTVSS
VL: B13 VL with L46F, R50K, A55E, N92K, F105I
B16: CL-511026 (antibody, V domains shown)
VH: QVQLVESGGGVVQPGRSLRLSCAASGFTFSNFGMHWVRQAPDRGLEWVSIIWYDGSNKFYADSVKGRFTISRDNSKNTLFLQMDSLRAEDTAVYYCAKAEMRTSDYYNYGMDVWGQGTTVTVSS
VL: B13 VL with R50K, A55E, G68A, S76R, N92Y, F105I, K106N
B17: CL-511296 (antibody, V domains shown)
VH: QVQLVASGGGVVQPGRSQRLSCAASGFTFSNYGMHWVRQSPGRGLEWVAIIWYDGSNKFYADSVKGRFTISRDNSRNTLFLQMNSLRAEDTAIYYCAKSEERTSDNYFKYGMDVWGQGTTVIVST
VL: B13 VL with R50K, S53N, A55E, T74S, S77N, Y87F, N92T, F105I
B18: CL-511862 (antibody, V domains shown)
VH: QVQLVESGGGVVQPGKSLRLSCAASGFSFSSSGMHWVRQAPDKGLEWVAIIWYDGSHKFYADSVKGRFTISRDNSDNTLFLQMDSLRAEDTAVYYCVRAYPTSYNGNYDKYGMDVWGQGTTVTVSS
VL: B13 VL with T22A, S31T, R50K, S53T, A55E, Y91F, N92T, S93F, F105I
B19: CL-510700 (antibody, V domains shown)
VH: QVQLVESGGGVVQPGRSLRLSCAASGFTFSDFGMHWVRQTPGKGLEWVAIIWYDGSNKFYADSVKGRFTISRDNSKNTLFLQMNSLRAEDTAVYYCARSGVYYGSGSHFDYWGQGTLVTVSS
VL: B13 VL with Q38L, R50K, S53N, A55E, S56T, S60L, W95L, F105I
B20: CL-512011 (antibody, V domains shown)
VH: QVQLVESGGGVVQPGRSLRLSCVTSGFTFSSFGMHWVRQAPGKGLEWVALIWYDGSHKFYADSLTGRFTISRDNSKNTLYLQMNSLRVEDTAVYYCARAHAVTTANDKYGTDVWGQGTTVNVSP
VL: B13 VL with Q38H, K42N, R50K, S53N, A55E, Y87F, F105V
B21: CL-511905 (antibody, V domains shown)
VH: QVQLVESGGGVVQPGRSLRLSCAASGFTFSGSGMHWVRQAPGRGLEWVAIIWYDGSHKYYVDSVQGRFIISRDNSKNTLYLEMNSLRVEDTAVYYCVRAYPSGSSNDKYGMDVWGQGTTVTVSS
VL: not shown
B22: CL-511771 (antibody, V domains shown)
VH: QVQLVESGGGVVQPGRSLRLSCAASGFTFSNSGMHWVRQAPGKGLEWVAIIWYDGSNKYYAESMKGRFTISRDNSKNTLYLQMNSLRAEDTAVYYCARDGTTNAFDLWGQGTMVTVSP
VL: not shown
B23: CL-510427 (antibody, V domains shown)
VH: QVQLVESGGGVVQPGRSLRLSCAASGFTFSNYGMHWVRQAPGKGLEWVAVIWYDGSKEDYADSVKGRLTISRDNSKNTLYLQMNSLRAEDTAVYYCARDGDSRGWYAFDYWGQGTLVTVSS
VL: not shown
B24: CL-512191 (antibody, V domains shown)
VH: QVQLVESGGGVVQPGRSLRLSCAASGFTFSNYAMHWVRQAPGKGLEWVAVIWYDGSNKYYADSVKGRFTISRDDSKNTLYLQMNSLRAEDTAVYYCARDKGYRYGFNWFDPWGQGTLVTVSS
VL: QSVLTQPPSVSGAPGQRVTISCTGSSSNIGAGYDVHWYQKLPGTAPKLLIFSNSNRPSGVPDRFSGSKSGTSASLAITGLQAEDEADYYCQSYDSSLSGSRVFGGGTKLTVL

Biological target: recombinant full-length PfCSP (Plasmodium falciparum circumsporozoite protein, strain NF54) (Plasmodium falciparum NF54, UniProt P19597)
Sequence (P19597 20-375): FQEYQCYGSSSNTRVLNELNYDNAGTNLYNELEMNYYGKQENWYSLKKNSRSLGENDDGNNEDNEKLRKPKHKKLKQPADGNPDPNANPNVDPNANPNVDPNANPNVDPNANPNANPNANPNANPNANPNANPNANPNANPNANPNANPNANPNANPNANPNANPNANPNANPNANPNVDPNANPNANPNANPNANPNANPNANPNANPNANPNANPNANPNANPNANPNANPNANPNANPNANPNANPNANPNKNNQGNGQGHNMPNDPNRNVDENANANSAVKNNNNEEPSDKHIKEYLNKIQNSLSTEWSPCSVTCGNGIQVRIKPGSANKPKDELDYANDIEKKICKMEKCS

Binding result, binds:
B1, B2, B3, B4, B5, B6, B7, B8, B9, B10, B11, B12, B13, B14, B15, B16, B17, B18, B19, B20, B21, B22, B23, B24
